# ± gives the standard deviation.
# Assay: collision cross section of modified peptide (TIMS, N2, iRT-aligned); higher = larger / more extended gas-phase ion
# Summary of the method: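 Synthetic peptide pools (~100 fmol/µL in 2% acetonitrile/0.1% formic acid, iRT standard spiked 1:40) were separated on a 120-min nanoflow C18 gradient at 60 °C. They were analysed on a timsTOF Pro/HT (dda-PASEF, nitrogen, ~2.4 mbar) and identified with MaxQuant. 1/K0 was calibrated with three reference ions and aligned run-wise to the median iRT peptide deviation. Collision cross section came from the Mason-Schamp equation, averaging 1–3 technical replicates of the most abundant feature per charge state.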
# [1] = charge state: 2, modification: Acetyl (K)
# [2] = charge state: 2, modification: Biotin
# [3] = charge state: 2, modification: Butyryl
# [4] = charge state: 2, modification: Crotonyl
# [5] = charge state: 2, modification: Dimethyl (K)
# [6] = charge state: 3, modification: Dimethyl (K)
# [7] = charge state: 2, modification: Formyl
# [8] = charge state: 2, modification: Glutarylation
# [9] = charge state: 2, modification: GlyGly (K)
# [10] = charge state: 3, modification: GlyGly (K)
# [11] = charge state: 2, modification: Malonyl
# [12] = charge state: 2, modification: Methyl (K)
# [13] = charge state: 3, modification: Methyl (K)
# [14] = charge state: 2, modification: Propionyl
# [15] = charge state: 2, modification: Succinyl
# [16] = charge state: 2, modification: Trimethyl (K)
# [17] = charge state: 3, modification: Trimethyl (K)
# [18] = charge state: 2, modification: hydroxyisobutyryl
# [19] = charge state: 2, modification: Nitro (Y)
# [20] = charge state: 2, modification: Phospho (Y)
# [21] = charge state: 2, modification: Citrullination (R)
# [22] = charge state: 3, modification: Citrullination (R)
# [23] = charge state: 2, modification: Methyl (R)
# [24] = charge state: 3, modification: Methyl (R)
sequence,measurement,setting,value
SEASSEFAKK [_SEASSEFAK(Acetyl (K))K_],collision cross section,[1],349.46 ± 1 Å²
SEASSEFAKK [_SEASSEFAK(Biotin)K_],collision cross section,[2],374.33 Å²
SEASSEFAKK [_SEASSEFAK(Butyryl)K_],collision cross section,[3],356.58 ± 1.8 Å²
SEASSEFAKK [_SEASSEFAK(Crotonyl)K_],collision cross section,[4],355.23 ± 0.57 Å²
SEASSEFAKK [_SEASSEFAK(Dimethyl (K))K_],collision cross section,[5],358.79 ± 0.58 Å²
same,collision cross section,[6],422.66 ± 2.8 Å²
SEASSEFAKK [_SEASSEFAK(Formyl)K_],collision cross section,[7],345.37 ± 1.6 Å²
SEASSEFAKK [_SEASSEFAK(Gluratylation)K_],collision cross section,[8],358.01 ± 0.65 Å²
SEASSEFAKK [_SEASSEFAK(GlyGly (K))K_],collision cross section,[9],362.55 ± 0.39 Å²
same,collision cross section,[10],429.79 ± 1.1 Å²
SEASSEFAKK [_SEASSEFAK(Malonyl)K_],collision cross section,[11],350.91 ± 0.74 Å²
SEASSEFAKK [_SEASSEFAK(Methyl (K))K_],collision cross section,[12],357.88 ± 2.5 Å²
same,collision cross section,[13],426.48 ± 2.6 Å²
SEASSEFAKK [_SEASSEFAK(Propionyl)K_],collision cross section,[14],351.7 ± 3.7 Å²
SEASSEFAKK [_SEASSEFAK(Succinyl)K_],collision cross section,[15],351.69 ± 0.87 Å²
SEASSEFAKK [_SEASSEFAK(Trimethyl (K))K_],collision cross section,[16],361.14 ± 0.6 Å²
same,collision cross section,[17],431.4 ± 4.5 Å²
SEASSEFAKK [_SEASSEFAK(hydroxyisobutyryl)K_],collision cross section,[18],356.42 ± 0.78 Å²
SEGFDTYR [_SEGFDTY(Nitro (Y))R_],collision cross section,[19],336.07 ± 0.95 Å²
SEGFDTYR [_SEGFDTY(Phospho (Y))R_],collision cross section,[20],338.3 ± 0.78 Å²
SFDEVEGVFGRGGGR [_SFDEVEGVFGR(Citrullination (R))GGGR_],collision cross section,[21],404.76 ± 0.98 Å²
same,collision cross section,[22],503.12 Å²
SFDEVEGVFGRGGGR [_SFDEVEGVFGR(Methyl (R))GGGR_],collision cross section,[23],429.58 ± 1.6 Å²
same,collision cross section,[24],513.29 ± 1.2 Å²
SFEDIHQYR [_SFEDIHQY(Nitro (Y))R_],collision cross section,[19],368.15 ± 0.17 Å²
same,collision cross section,"charge state: 3, modification: Nitro (Y)",453.82 ± 1.2 Å²
SFEDIHQYR [_SFEDIHQY(Phospho (Y))R_],collision cross section,[20],367.21 ± 0.78 Å²
SFSASGAQIVSR [_SFSASGAQIVS(HexNAc (ST))R_],collision cross section,"charge state: 2, modification: HexNAc (ST)",387.57 ± 0.63 Å²
SGATAGAAGGRGK [_SGATAGAAGGR(Citrullination (R))GK_],collision cross section,[21],331.61 ± 0.28 Å²
SGATAGAAGGRGK [_SGATAGAAGGR(Methyl (R))GK_],collision cross section,[23],366.66 ± 1.5 Å²
same,collision cross section,[24],448.31 ± 3.9 Å²
SGFGKFER [_SGFGK(Acetyl (K))FER_],collision cross section,[1],331.68 ± 1.9 Å²
SGFGKFER [_SGFGK(Biotin)FER_],collision cross section,[2],352.97 Å²
SGFGKFER [_SGFGK(Butyryl)FER_],collision cross section,[3],337.09 ± 1.2 Å²
SGFGKFER [_SGFGK(Crotonyl)FER_],collision cross section,[4],337.57 ± 1.3 Å²
SGFGKFER [_SGFGK(Dimethyl (K))FER_],collision cross section,[5],334.57 ± 1.1 Å²
SGFGKFER [_SGFGK(Formyl)FER_],collision cross section,[7],326.95 ± 0.99 Å²
SGFGKFER [_SGFGK(Gluratylation)FER_],collision cross section,[8],340.69 ± 0.69 Å²
SGFGKFER [_SGFGK(GlyGly (K))FER_],collision cross section,[9],340.43 ± 0.74 Å²
SGFGKFER [_SGFGK(Malonyl)FER_],collision cross section,[11],335.56 Å²
SGFGKFER [_SGFGK(Propionyl)FER_],collision cross section,[14],336.62 ± 0.34 Å²
SGFGKFER [_SGFGK(Succinyl)FER_],collision cross section,[15],336.55 ± 1.3 Å²
SGFGKFER [_SGFGK(Trimethyl (K))FER_],collision cross section,[16],339.14 Å²
SGFGKFER [_SGFGK(hydroxyisobutyryl)FER_],collision cross section,[18],340.58 ± 1.9 Å²
SGGGYGGDRGGGYGGDR [_SGGGYGGDR(Citrullination (R))GGGYGGDR_],collision cross section,[21],393.58 ± 0.28 Å²
same,collision cross section,[22],470.6 ± 4.1 Å²
SGGGYGGDRGGGYGGDR [_SGGGYGGDR(Methyl (R))GGGYGGDR_],collision cross section,[24],461.83 ± 3 Å²
SGGGYGGDRSSGGGYSGDR [_SGGGYGGDR(Methyl (R))SSGGGYSGDR_],collision cross section,[24],484.52 ± 1.5 Å²
SGGRGVSVSSAR [_SGGR(Citrullination (R))GVSVSSAR_],collision cross section,[21],351.18 ± 4.8 Å²
SGGRGVSVSSAR [_SGGR(Methyl (R))GVSVSSAR_],collision cross section,[23],362.59 ± 13 Å²
same,collision cross section,[24],443.44 ± 0.81 Å²
SGGYGGSRDYYSSR [_SGGYGGSR(Citrullination (R))DYYSSR_],collision cross section,[21],397.63 ± 1.4 Å²
SGGYGGSRDYYSSR [_SGGYGGSR(Methyl (R))DYYSSR_],collision cross section,[24],475.52 ± 2 Å²
SGKFTQQDIDEAK [_SGK(Acetyl (K))FTQQDIDEAK_],collision cross section,[1],412.93 ± 2.8 Å²
SGKFTQQDIDEAK [_SGK(Biotin)FTQQDIDEAK_],collision cross section,[2],433.94 ± 2.7 Å²
SGKFTQQDIDEAK [_SGK(Butyryl)FTQQDIDEAK_],collision cross section,[3],419.52 ± 1.7 Å²
SGKFTQQDIDEAK [_SGK(Crotonyl)FTQQDIDEAK_],collision cross section,[4],419.28 ± 0.55 Å²
SGKFTQQDIDEAK [_SGK(Dimethyl (K))FTQQDIDEAK_],collision cross section,[5],408.63 Å²
same,collision cross section,[6],466.84 ± 1.6 Å²
SGKFTQQDIDEAK [_SGK(Formyl)FTQQDIDEAK_],collision cross section,[7],408.45 ± 0.19 Å²
SGKFTQQDIDEAK [_SGK(Gluratylation)FTQQDIDEAK_],collision cross section,[8],415.95 ± 0.14 Å²
SGKFTQQDIDEAK [_SGK(GlyGly (K))FTQQDIDEAK_],collision cross section,[9],414.34 ± 1.9 Å²
same,collision cross section,[10],476.61 ± 1.1 Å²
SGKFTQQDIDEAK [_SGK(Malonyl)FTQQDIDEAK_],collision cross section,[11],410.91 ± 0.58 Å²
SGKFTQQDIDEAK [_SGK(Methyl (K))FTQQDIDEAK_],collision cross section,[12],408.84 ± 1.9 Å²
same,collision cross section,[13],468.01 ± 3.6 Å²
SGKFTQQDIDEAK [_SGK(Propionyl)FTQQDIDEAK_],collision cross section,[14],414.71 ± 0.97 Å²
SGKFTQQDIDEAK [_SGK(Succinyl)FTQQDIDEAK_],collision cross section,[15],414.39 ± 0.54 Å²
SGKFTQQDIDEAK [_SGK(Trimethyl (K))FTQQDIDEAK_],collision cross section,[16],408.18 ± 1.1 Å²
same,collision cross section,[17],472.62 ± 0.88 Å²
SGKFTQQDIDEAK [_SGK(hydroxyisobutyryl)FTQQDIDEAK_],collision cross section,[18],423.01 ± 2.3 Å²
SGNLTEDDKHNNAK [_SGNLTEDDK(Acetyl (K))HNNAK_],collision cross section,[1],418.78 ± 2.4 Å²
same,collision cross section,"charge state: 3, modification: Acetyl (K)",469.35 ± 2.1 Å²
SGNLTEDDKHNNAK [_SGNLTEDDK(Butyryl)HNNAK_],collision cross section,[3],425.09 ± 0.55 Å²
same,collision cross section,"charge state: 3, modification: Butyryl",472.83 ± 2.7 Å²
SGNLTEDDKHNNAK [_SGNLTEDDK(Crotonyl)HNNAK_],collision cross section,[4],426.1 Å²
same,collision cross section,"charge state: 3, modification: Crotonyl",469.87 ± 1.6 Å²
SGNLTEDDKHNNAK [_SGNLTEDDK(Dimethyl (K))HNNAK_],collision cross section,[6],479.84 ± 1.3 Å²
SGNLTEDDKHNNAK [_SGNLTEDDK(Formyl)HNNAK_],collision cross section,[7],415.1 ± 1.8 Å²
same,collision cross section,"charge state: 3, modification: Formyl",466.8 ± 1.3 Å²
